# Results as given in patent publication US20190085040A1.
# Columns and labels:
# [1] = molecular target: transient receptor potential vanilloid 1 (TRPV1), rat, in primary neonatal cardiomyocytes (rat) (UniProt O35433); assay: cell-based or functional assay
# Sequence of transient receptor potential vanilloid 1 (TRPV1), rat, in primary neonatal cardiomyocytes (rat) (O35433 whole entry): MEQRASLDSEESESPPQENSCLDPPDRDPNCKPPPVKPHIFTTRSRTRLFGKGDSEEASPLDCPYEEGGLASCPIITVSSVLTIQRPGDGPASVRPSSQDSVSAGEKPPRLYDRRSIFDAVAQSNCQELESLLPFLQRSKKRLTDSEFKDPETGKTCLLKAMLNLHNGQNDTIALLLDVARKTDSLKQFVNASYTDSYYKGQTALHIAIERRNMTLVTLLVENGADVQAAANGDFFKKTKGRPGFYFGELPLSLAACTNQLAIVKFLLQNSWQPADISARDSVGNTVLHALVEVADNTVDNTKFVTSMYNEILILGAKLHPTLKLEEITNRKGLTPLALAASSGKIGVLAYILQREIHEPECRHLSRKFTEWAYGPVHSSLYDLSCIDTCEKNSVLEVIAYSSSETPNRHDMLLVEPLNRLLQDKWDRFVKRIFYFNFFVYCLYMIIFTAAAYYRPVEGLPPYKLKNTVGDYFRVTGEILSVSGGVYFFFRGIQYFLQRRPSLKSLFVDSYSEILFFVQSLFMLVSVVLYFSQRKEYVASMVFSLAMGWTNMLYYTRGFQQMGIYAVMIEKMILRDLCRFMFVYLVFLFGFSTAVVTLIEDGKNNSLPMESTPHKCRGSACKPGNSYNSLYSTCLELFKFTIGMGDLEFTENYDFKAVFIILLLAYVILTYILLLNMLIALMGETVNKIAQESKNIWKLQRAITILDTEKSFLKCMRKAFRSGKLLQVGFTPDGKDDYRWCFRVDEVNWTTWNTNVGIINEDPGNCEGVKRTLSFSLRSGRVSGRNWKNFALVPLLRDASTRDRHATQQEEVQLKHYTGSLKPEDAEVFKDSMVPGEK
Substance,"fold decrease in negative change in mitochondrial membrane potential caused by capsaicin (1 µM) in primary neonatal cardiomyocytes, with V1-cal (1 µM) given 10 minutes before [1] [fold]","calcineurin activity by free phosphate release from a calcineurin substrate (colorimetric, peptide at 10 µM, against TAT at 10 µM) (V1-cal)"
"calcineurin, endogenous in rat primary neonatal cardiomyocytes (enzyme)",10,–
recombinant calcineurin,–,"In comparison to TAT, V1-cal reduced the ability for calcineurin to dephosphorylate a calcineurin substrate as measured by free phosphate release in vitro"
